B1: Calcipressin-like protein (Saccharomyces cerevisiae), P36054 (parent)
chain: MGNIITDTIIITSDKCDIVDNDNVERIQVWLSKNILRKFQINENEPLQLIILKRFKRILLICPSHDISQHVMDASRALEMENFNFSYSLQDGQRNLTKQYLKVPESEKMFLISPPASPPPEFDFSKCEDAPQRHIQSHIQQDQQQRLEASQLLPNNPDKNNNGTFTLLKSKVGAITIDRCPTNDGNGQMQLADHVKTAFPPKSIFDTDDDD
partner: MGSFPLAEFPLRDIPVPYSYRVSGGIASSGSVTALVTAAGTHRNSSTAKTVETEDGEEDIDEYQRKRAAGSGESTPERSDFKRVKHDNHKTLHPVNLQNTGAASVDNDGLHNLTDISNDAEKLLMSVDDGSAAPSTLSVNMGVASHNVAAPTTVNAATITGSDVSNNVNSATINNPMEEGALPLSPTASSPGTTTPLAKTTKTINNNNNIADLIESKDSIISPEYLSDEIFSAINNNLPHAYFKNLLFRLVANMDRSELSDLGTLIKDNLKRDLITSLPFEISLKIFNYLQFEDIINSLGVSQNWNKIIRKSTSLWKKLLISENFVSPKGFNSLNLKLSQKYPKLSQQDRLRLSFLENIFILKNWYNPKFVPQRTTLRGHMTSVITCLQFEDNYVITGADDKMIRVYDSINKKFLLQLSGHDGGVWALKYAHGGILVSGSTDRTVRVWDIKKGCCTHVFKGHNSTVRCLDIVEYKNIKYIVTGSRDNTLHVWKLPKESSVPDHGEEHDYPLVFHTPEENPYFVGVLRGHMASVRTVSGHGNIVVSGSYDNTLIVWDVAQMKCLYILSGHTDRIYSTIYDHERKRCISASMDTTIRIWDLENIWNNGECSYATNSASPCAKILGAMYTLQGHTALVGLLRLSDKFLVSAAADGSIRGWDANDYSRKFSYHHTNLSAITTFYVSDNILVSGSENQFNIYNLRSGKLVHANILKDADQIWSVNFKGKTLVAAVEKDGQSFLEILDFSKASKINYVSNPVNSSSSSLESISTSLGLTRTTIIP

Variants of: B1
Details: with cdc4_yeast CDC4, P07834

Variant | effect of a mutation on the interaction
S113A | disrupting interaction
S113A;S117A | disrupting interaction strength
S117A | disrupting interaction
